Test results reported in patent publication US20040115734A1 (VLAAMS INTERUNIVERSITAIR INSTITUUT VOOR BIOTECHNOLOGIE VZW, published 2004).

Columns and labels:
[1] = target: T1, TLN/256C clone of the pAD-GAL4 mouse hippocampal two-hybrid library (mouse, UniProt Q60625 662-917); assay: yeast two-hybrid screen, His+ selection and β-galactosidase filter lift
T1 sequence (looked up): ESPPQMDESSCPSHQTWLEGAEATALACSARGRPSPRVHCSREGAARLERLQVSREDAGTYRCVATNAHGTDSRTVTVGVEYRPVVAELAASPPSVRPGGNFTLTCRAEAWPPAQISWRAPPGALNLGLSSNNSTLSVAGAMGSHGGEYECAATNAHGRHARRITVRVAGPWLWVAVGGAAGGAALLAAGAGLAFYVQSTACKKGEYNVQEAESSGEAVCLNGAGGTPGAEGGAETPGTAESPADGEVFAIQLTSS
Source text: Endogenous TLN could be precipitated from Triton X-100 brain extracts using recombinant GST fusion proteins containing the 39 C-terminal residues of PS1 or PS2 (PS1/39C, FIG. 1, Part B). The binding was salt dependent (FIG. 1, Part C). […] We detected a weak signal for endogenous holo-APP only after long exposure (FIG. 1, Part D). […] Although the PS1-NTF/ CTF is Triton-X100 sensitive, minor amounts of PS1-NTF were also detected in precipitates of Triton-X100-extracted membranes. In the presence of 2% CHAPS however, both PS1-NTF and PS1-CTF were recovered on the beads as both fragments remain non-covalently bound under these conditions (Capell et al., 1998). […] Since CHAPS is less denaturing than TX100, it is possible that other proteins of the complex cause steric hindrance under these conditions (Capell et al., 1998).
Mouse hippocampal mRNA was used to generate a primary lambda library that was converted to a pAD-GAL4 plasmid library by in vivo mass excision (HybriZAP, Stratagene). The sequence coding for the C-terminal eight amino acids of PS1 was cloned into the pBD-GAL4 vector. Yeast was transformed simultaneously with the bait and the library plasmids using the lithium-acetate method (Gietz et al., 1995). His⁺ colonies were restreaked onto selection agar plates and assayed for lacZ gene expression by the β-galactosidase filter lift assay.

[2] = target: T2, GST-PS1/1-81N (UniProt P49768 1-81); assay: GST pull-down of in vitro translated [35S]-labeled TLN constructs, autoradiogram
T2 construct: range 1-81; Lacks the first transmembrane domain of PS1; also called PS1 N-terminus fused to GST; GST-fused with the N-terminus of PS1; not shown: glutathione S-transferase (GST) encoded by vector pGEX4T-1 (Pharmacia Biotech)
Experimental: (§1) Part C. Total: autoradiogram of the translated, [³⁵S]-methionine labeled TLN constructs used for the binding reaction. Similar amounts of input material are used. Note the tendency of the intracellular domain (IC) to oligomerize.
(§2) Part D. Mapping of the binding domain of TLN. […] Radiolabeled translated products (Total) were assayed for binding to GST-PS1/39C (third panel), GST-PS1/1-81N (fourth panel) or GST alone (not shown). Binding becomes virtually abolished when the N-terminal 5 amino acids (Val⁸²⁹-Trp⁸³³) of the transmembrane region of TLN are deleted (construct 8 in top panel).

[3] = target: T3, GST alone (UniProt P08515 1-218 = GST); assay: as above
T3 construct: Negative control, immobilized on glutathione beads; also called GST-beads
T3 sequence (P08515 whole entry): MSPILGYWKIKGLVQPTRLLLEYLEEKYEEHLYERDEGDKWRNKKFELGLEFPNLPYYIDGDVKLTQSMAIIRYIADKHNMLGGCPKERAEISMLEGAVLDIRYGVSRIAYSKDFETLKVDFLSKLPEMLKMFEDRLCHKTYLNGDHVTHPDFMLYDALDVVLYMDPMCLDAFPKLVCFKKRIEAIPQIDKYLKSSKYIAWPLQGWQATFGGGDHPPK
Experimental: as §1, §2

[4] = target: T2, GST-PS1/1-81N; assay: GST pull-down of [35S]-labeled C-terminal APP-stubs expressed in neurons
[5] = target: T3, GST alone; assay: GST pull-down of [35S]-labeled C-terminal APP-stubs expressed in neurons; data not shown
[6] = target: T4, GST-TLN/256C (mouse, UniProt Q60625 662-917); assay: GST pull-down from 1% Triton-X100 or 2% CHAPS mouse brain extracts, western blot
T4 construct: Immobilized on glutathione beads; not shown: glutathione S-transferase (GST) encoded by vector pGEX4T-1 (Pharmacia Biotech)
T4 sequence (looked up): T1 sequence (looked up)
Experimental: GST alone was used as a negative control. PS1-CTF was predominantly detected in the bound fraction of low salt 1% Triton-X100 brain extracts. […] The difference between the intensity of the bands is due to different affinities of the pabs as shown for the crude extract (“Total” in first lane). Binding was largely abolished at high salt concentrations (400 mM).
Murine cortices were homogenized in 250 mM sucrose containing 10 mM Tris-HCL pH 7.4, 1 mM EDTA (De Strooper et al., 1999). Nuclei and tissue fragments were removed by low speed centrifugation. Microsomal membranes pelleted by high-speed centrifugation (50K rpm, 1 hour) were resuspended in LSB containing 1% Triton X-100 or 2% CHAPS. Aliquots (1 mg/ml) of the cleared extracts (55K rpm, 1 hour) were incubated overnight (4° C.) with immobilized GST fusion proteins. Beads were washed in low salt extraction buffer containing 0.5% Triton X-100 and bound proteins were analyzed by SDS-PAGE and western blotting.

B1: PS1-C8 bait (C-terminal eight amino acids of PS1 in pBD-GAL4) (other, UniProt P04386 1-147, looked up)
chain: MKLLSSIEQACDICRLKKLKCSKEKPKCAKCLKNNWECRYSPKTKRSPLTRAHLTEVESRLERLEQLFLLIFPREDLDMILKMDSLQDIKALLTGLFVQDNVNKDAVTDRLASVETDMPLTLRQHRISATSSSEESSNKGQRQLTVSLAFHQFYI
[1]
  binding result: binds

B2: intracellular domain (IC) of TLN (in vitro translated) (other, mouse, UniProt Q60625 855-917, looked up)
chain: AFYVQSTACKKGEYNVQEAESSGEAVCLNGAGGTPGAEGGAETPGTAESPADGEVFAIQLTSS
notes: domain: intracellular domain (IC); also called IC domain of TLN
[2]
  binding result: no binding
[3]
  binding result: no binding

B3: APP-C59 (other, UniProt P05067 712-770, looked up)
chain: IATVIVITLVMLKKKQYTSIHHGVVEVDAAVTPEERHLSKMQQNGYENPTYKFFEQMQN
notes: domain: γ40-cleaved C-terminal fragment (APP-C59); also called γ40-cleaved cytoplasmic domain of APP
[4]
  binding result: no binding
[5]
  binding result: no binding

B4: BAP31 (endogenous, mouse brain extract) (other, UniProt Q61335 2-245, looked up)
chain: SLQWTTVATFLYAEVFAVLLLCIPFISPKRWQKVFKSRLVELVVTYGNTFFVVLIVILVLLVIDAVREILKYDDVTEKVNLQNNPGAMEHFHMKLFRAQRNLYIAGFSLLLSFLLRRLVTLISQQATLLASNEAFKKQAESASEAAKKYMEENDQLKKGAAEDGDKLDIGNTEMKLEENKSLKNDLRKLKDELASTKKKLEKAENEALAMQKQSEGLTKEYDRLLEEHAKLQASVRGPSVKKEE
[6]
  binding result: no binding

B5: ductin (endogenous, mouse brain extract) (other, UniProt P63082 1-155, looked up)
chain: MADIKNNPEYSSFFGVMGASSAMVFSAMGAAYGTAKSGTGIAAMSVMRPELIMKSIIPVVMAGIIAIYGLVVAVLIANSLTDGITLYRSFLQLGAGLSVGLSGLAAGFAIGIVGDAGVRGTAQQPRLFVGMILILIFAEVLGLYGLIVALILSTK
[6]
  binding result: no binding
